# Measured values: article PMC10989685, “Structural and functional characterization of the IgSF21-neurexin2α complex and its related signaling pathways in the regulation of inhibitory synapse organization” (Frontiers in Molecular Neuroscience, 2024)
# Target: T1, Recombinant human Fc-tagged NRXN2α (human Nrxn2α-Fc, R&D Systems #6636-NX) (human, UniProt Q9P2S2 29-1636)
# T1 construct: Neurexin2α (Nrxn2α), human, ectodomain; The catalogue number is printed for the pull-down only; Limits and splice variant are in the supplier's data sheet; also called soluble Nrxn2α ectodomain; soluble Nrxn2α; source: bought: R&D Systems (#6636-NX), highly purified
# Test: SPR; Biacore T200; IgSF21-His amine-coupled to a CM5 chip (500 RU); NRXN2α-Fc as analyte, 0 to 200 nM; PBS pH 7.4, 0.025% Tween-20, 25°C, 20 μl/min; one-site Langmuir (1:1) model, kinetic analysis
# Details: both partners purified
# T1 sequence (Q9P2S2 29-1636): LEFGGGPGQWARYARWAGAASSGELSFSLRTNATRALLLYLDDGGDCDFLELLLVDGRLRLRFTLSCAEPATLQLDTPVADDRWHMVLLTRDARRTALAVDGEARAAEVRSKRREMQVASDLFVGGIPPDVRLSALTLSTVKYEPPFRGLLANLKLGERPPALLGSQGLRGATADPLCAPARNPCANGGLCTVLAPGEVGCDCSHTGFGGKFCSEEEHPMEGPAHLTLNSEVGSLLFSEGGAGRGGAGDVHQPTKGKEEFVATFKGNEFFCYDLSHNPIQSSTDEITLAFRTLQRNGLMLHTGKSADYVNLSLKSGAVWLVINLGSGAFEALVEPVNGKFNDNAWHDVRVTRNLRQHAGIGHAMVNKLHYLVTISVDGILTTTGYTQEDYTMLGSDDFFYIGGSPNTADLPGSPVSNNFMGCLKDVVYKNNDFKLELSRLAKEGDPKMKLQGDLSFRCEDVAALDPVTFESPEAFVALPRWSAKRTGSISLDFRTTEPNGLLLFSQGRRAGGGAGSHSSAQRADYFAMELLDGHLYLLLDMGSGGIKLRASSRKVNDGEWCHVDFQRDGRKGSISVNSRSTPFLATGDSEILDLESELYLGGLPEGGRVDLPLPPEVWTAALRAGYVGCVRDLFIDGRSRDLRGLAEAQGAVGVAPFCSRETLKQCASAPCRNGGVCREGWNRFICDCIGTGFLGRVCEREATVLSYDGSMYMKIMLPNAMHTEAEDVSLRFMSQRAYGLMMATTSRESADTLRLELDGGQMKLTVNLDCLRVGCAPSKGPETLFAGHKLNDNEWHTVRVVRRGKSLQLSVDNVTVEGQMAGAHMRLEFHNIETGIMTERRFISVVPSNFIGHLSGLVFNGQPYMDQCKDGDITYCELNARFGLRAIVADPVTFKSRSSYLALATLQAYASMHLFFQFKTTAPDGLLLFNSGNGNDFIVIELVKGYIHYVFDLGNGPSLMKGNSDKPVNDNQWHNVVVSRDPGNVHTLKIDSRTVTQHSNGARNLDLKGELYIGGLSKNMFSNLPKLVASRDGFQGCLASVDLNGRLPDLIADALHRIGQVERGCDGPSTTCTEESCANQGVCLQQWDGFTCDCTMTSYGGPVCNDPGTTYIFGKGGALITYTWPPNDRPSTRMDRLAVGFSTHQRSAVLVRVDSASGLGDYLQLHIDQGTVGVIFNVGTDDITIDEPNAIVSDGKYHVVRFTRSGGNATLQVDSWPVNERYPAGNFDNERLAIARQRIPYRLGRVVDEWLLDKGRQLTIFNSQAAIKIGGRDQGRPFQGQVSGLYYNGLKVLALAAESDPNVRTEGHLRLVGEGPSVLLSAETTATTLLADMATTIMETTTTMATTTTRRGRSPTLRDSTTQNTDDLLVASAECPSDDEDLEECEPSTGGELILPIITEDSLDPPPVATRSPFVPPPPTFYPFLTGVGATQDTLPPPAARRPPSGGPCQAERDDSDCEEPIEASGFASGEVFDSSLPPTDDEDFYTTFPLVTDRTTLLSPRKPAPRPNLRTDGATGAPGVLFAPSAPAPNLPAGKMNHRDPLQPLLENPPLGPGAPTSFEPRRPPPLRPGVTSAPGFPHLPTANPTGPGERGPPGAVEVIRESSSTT
binder,measurement,value
"Recombinant human His-tagged IgSF21 protein (R&D Systems #10330-S2) (natural protein, UniProt Q96ID5 25-444, looked up, Immunoglobulin superfamily member 21 (IgSF21), human, soluble recombinant protein; Soluble bought protein, probably the ectodomain without the GPI-anchor signal; also called IgSF21-His; human IgSF21-His; source: bought: R&D Systems (#10330-S2), purified) YLTVNIEPLPPVVAGDAVTLKCNFKTDGRMREIVWYRVTDGGTIKQKIFTFDAMFSTNYSHMENYRKREDLVYQSTVRLPEVRISDNGPYECHVGIYDRATREKVVLASGNIFLNVMAPPTSIEVVAADTPAPFSRYQAQNFTLVCIVSGGKPAPMVYFKRDGEPIDAVPLSEPPAASSGPLQDSRPFRSLLHRDLDDTKMQKSLSLLDAENRGGRPYTERPSRGLTPDPNILLQPTTENIPETVVSREFPRWVHSAEPTYFLRHSRTPSSDGTVEVRALLTWTLNPQIDNEALFSCEVKHPALSMPMQAEVTLVAPKGPKIVMTPSRARVGDTVRILVHGFQNEVFPEPMFTWTRVGSRLLDGSAEFDGKELVLERVPAELNGSMYRCTAQNPLGSTDTHTRLIVFENPNIPRGTEDSN",Kd,5.67 nM
